Values quoted from earlier work, collected in article PMC4244080.

Target: insulin receptor (Homo sapiens) (UniProt P06213)
Experiment: radioligand binding

Chain of UniProt P06213 (P06213 763-1382): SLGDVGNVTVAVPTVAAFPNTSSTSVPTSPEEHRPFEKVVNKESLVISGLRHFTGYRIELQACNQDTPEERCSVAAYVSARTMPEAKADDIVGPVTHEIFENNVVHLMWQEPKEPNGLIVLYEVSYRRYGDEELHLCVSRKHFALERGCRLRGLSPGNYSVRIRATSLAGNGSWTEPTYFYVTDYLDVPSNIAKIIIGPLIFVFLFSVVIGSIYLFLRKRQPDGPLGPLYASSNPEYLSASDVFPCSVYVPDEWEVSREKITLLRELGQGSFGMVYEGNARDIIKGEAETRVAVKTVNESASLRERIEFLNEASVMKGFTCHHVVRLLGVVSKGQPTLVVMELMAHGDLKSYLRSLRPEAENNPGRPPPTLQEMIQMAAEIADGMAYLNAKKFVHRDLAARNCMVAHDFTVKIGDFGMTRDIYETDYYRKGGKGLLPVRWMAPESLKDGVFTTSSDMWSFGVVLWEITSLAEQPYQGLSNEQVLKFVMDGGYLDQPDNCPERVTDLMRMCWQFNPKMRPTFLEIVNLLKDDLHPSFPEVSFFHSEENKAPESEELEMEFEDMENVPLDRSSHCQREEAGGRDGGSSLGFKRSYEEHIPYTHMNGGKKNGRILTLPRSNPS
Chain of insulin (P01308 90-110): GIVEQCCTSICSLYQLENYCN

insulin (from UniProt P01308)
Kd: 0.3 nM
